Measured values: publication PMC9403545, “Structure based design of effective HtpG-derived vaccine antigens against M. tuberculosis” (Frontiers in Molecular Biosciences, 2022)

Biological target: HtpGMtb_C (C-terminal domain of HtpGMtb, wild type) (M. tuberculosis H37Rv)
Experiment: SEC-MALS

Chain of HtpGMtb_C (C-terminal domain of HtpGMtb, wild type) (domain or fragment) (A1KKZ1 417-645 limits assumed): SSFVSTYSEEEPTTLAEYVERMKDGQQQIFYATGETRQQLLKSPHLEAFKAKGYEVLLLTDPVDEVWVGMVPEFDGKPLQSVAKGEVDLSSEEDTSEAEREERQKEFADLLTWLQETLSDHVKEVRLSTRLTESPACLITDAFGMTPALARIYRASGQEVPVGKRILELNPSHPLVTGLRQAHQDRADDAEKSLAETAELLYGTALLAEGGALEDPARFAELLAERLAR

For “HtpGMtb_C (C-terminal domain of HtpGMtb, wild type) (domain or fragment)”, the stoichiometry N was 2.
